According to paper PMC4316792, “The dehydrogenase region of the NADPH oxidase component Nox2 acts as a protein disulfide isomerase (PDI) resembling PDIA3 with a role in the binding of the activator protein p67^phox” (Frontiers in Chemistry, 2015):

B1: p67^phox(1–212) [not stated] / Nox2 peptide 24 (357–371), dithiol form [modified: biotin on the N-terminus; C-terminal amide; cysteines 369 and 371 in the dithiol form; biotin on the N-terminus; C-terminal … (parent)
chain 1: MSLVEAISLWNEGVLAADKKDWKGALDAFSAVQDPHSRICFNIGCMYTILKNMTEAEKAFTRSINRDKHLAVAYFQRGMLYYQTEKYDLAIKDLKEALIQLRGNQLIDYKILGLQFKLFACEVLYNIAFMYAKKEEWKKAEEQLALATSMKSEPRHSKIDKAMECVWKQKLYEPVVIPVGKLFRPNERQVAQLAKKDYLGKATVVASVVDQD
chain 2: SGSGIVGDWTEGLFNACGC

Variants of: B1
Assay: peptide-protein binding assay (surface-attached biotinylated peptide, protein in solution, kinetic TMB oxidation read-out)
Conditions: with Nox2 peptide 24 (357–371), 10 min kinetic experiment, read off a plot

Row | response (Absorbance (650 nm) x 1000/min) | Variant
1 | 10 | chain 1 C40S C45S C121S C165S
